Tests used:
EGFP-F1LΔBH1 = EGFP-F1LΔBH1 (vaccinia virus strain Copenhagen, UniProt P68450 1-226, lacks amino acids 144–156); experiment: co-IP
EGFP-F1LΔBH3 = EGFP-F1LΔBH3 (vaccinia virus strain Copenhagen, UniProt P68450 1-226, lacks amino acids 93–108); experiment: co-IP

B1: HA-Bak (natural protein)
chain: MASGQGPGPPRQECGEPALPSASEEQVAQDTEEVFRSYVFYRHQQEQEAEGVAAPADPEMVTLPLQPSSTMGQVGRQLAIIGDDINRRYDSEFQTMLQHLQPTAENAYEYFTKIATSLFESGINWGRVVALLGFGYRLALHVYQHGLTGFLGQVTRFVVDFMLHHCIARWIAQRGGWVAALNLGNGPILNVLVVLGVVLLGQFVVRRFFKS
- fold decrease in Bak binding compared with wild-type F1L (EGFP-F1LΔBH1): 8 fold
- fold decrease in Bak binding compared with wild-type F1L (EGFP-F1LΔBH3): 3 fold
